For assay [1], the target named is T1, purified human WT full-length Tau protein (Tau441), His-tagged (human, UniProt P10636-8 1-441).
T1 construct: also called purified Tau441 protein; recombinant Tau441; source: E. coli ROSETTA 2(DE3)PLYSS, purified (Ni-NTA) by HUABIO
As to the kind of experiment: co-IP; competition: TNB peptide (0, 25, 50, 100, 200 µM) and purified Tau441 added to LPS-pretreated BV-2 cells; loss of Tau in the anti-NLRP3 immunoprecipitate. The conditions noted are these: both partners purified.

In assay [2] the target is T1, purified human WT full-length Tau …. The assay can be described thus: pull-down; Flag-NLRP3 (WT or mutant) immunoprecipitated from HEK-293T with anti-Flag on protein A/G agarose beads; incubated with 50 nM purified Tau441 and 1 mM acetyl CoA at 37°C for 2 h in 50 mM HEPES pH 8.0, 10 mM sodium butyrate, 1 mM DTT, 10% glycerol; blot with anti-Tau5 and anti-NLRP3. The conditions noted are these: both partners purified.

T1 sequence (P10636 other isoform, or with tags, fused parts or gaps): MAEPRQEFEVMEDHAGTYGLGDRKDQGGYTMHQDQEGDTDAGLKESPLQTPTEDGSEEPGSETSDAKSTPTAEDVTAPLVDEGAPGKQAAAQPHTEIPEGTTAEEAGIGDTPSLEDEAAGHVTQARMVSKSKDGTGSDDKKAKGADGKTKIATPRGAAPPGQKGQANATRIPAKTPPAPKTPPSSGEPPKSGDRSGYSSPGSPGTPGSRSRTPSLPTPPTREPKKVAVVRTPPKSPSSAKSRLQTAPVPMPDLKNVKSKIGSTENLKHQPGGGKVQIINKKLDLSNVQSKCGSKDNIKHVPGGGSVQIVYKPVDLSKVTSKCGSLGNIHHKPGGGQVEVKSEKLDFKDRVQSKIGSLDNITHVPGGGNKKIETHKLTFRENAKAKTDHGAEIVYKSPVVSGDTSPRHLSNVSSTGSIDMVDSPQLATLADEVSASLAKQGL

B1: Tau–NLRP3-binding blocking (TNB) peptide (peptide)
peptide: LEDLEDVDLKKFKMHLEDYPP
notes: stretch of NLRP3 around K21/K22/K24 in the PYD domain; 2574.89 Da; An FITC-labelled form (FITC-TNB) was used only for microscopy; also called peptide TNB; source: synthetic peptide (Bioyeargene Biosciences, Fmoc solid-phase, purity 95.93%)
In the case of B1, the binding result in assay [1] is recorded as “binds”.

B2: Flag-mouse NLRP3 (GV362-EGFP-FLAG-mouse NLRP3), wild type (natural protein, UniProt Q8R4B8 1-1033, looked up)
chain: MTSVRCKLAQYLEDLEDVDLKKFKMHLEDYPPEKGCIPVPRGQMEKADHLDLATLMIDFNGEEKAWAMAVWIFAAINRRDLWEKAKKDQPEWNDTCTSHSSMVCQEDSLEEEWMGLLGYLSRISICKKKKDYCKMYRRHVRSRFYSIKDRNARLGESVDLNSRYTQLQLVKEHPSKQEREHELLTIGRTKMRDSPMSSLKLELLFEPEDGHSEPVHTVVFQGAAGIGKTILARKIMLDWALGKLFKDKFDYLFFIHCREVSLRTPRSLADLIVSCWPDPNPPVCKILRKPSRILFLMDGFDELQGAFDEHIGEVCTDWQKAVRGDILLSSLIRKKLLPKASLLITTRPVALEKLQHLLDHPRHVEILGFSEAKRKEYFFKYFSNELQAREAFRLIQENEVLFTMCFIPLVCWIVCTGLKQQMETGKSLAQTSKTTTAVYVFFLSSLLQSRGGIEEHLFSDYLQGLCSLAADGIWNQKILFEECDLRKHGLQKTDVSAFLRMNVFQKEVDCERFYSFSHMTFQEFFAAMYYLLEEEAEGETVRKGPGGCSDLLNRDVKVLLENYGKFEKGYLIFVVRFLFGLVNQERTSYLEKKLSCKISQQVRLELLKWIEVKAKAKKLQWQPSQLELFYCLYEMQEEDFVQSAMDHFPKIEINLSTRMDHVVSSFCIKNCHRVKTLSLGFFHNSPKEEEEERRGGRPLDQVQCVFPDTHVACSSRLVNCCLTSSFCRGLFSSLSTNRSLTELDLSDNTLGDPGMRVLCEALQHPGCNIQRLWLGRCGLSHQCCFDISSVLSSSQKLVELDLSDNALGDFGIRLLCVGLKHLLCNLQKLWLVSCCLTSACCQDLALVLSSNHSLTRLYIGENALGDSGVQVLCEKMKDPQCNLQKLGLVNSGLTSICCSALTSVLKTNQNFTHLYLRSNALGDTGLRLLCEGLLHPDCKLQMLELDNCSLTSHSCWNLSTILTHNHSLRKLNLGNNDLGDLCVVTLCEVLKQQGCLLQSLQLGEMYLNRETKRALEALQEEKPELTIVFEISW
notes: NOD-like receptor pyrin domain containing 3 (NLRP3), mouse, fusion with Flag; Plasmid from Genechem; also called GV362-EGFP-Flag-NLRP3; NLRP3-protein A/G agarose beads complexes; source: HEK-293T, transfected 48 h, immunoprecipitated with anti-Flag antibody on protein A/G agarose beads
For the molecule B2, in assay [2], the binding result is “binds”.

(Values after publication PMC10941548, “Tau induces inflammasome activation and microgliosis through acetylating NLRP3” (Clinical and Translational Medicine, 2024).)
